Experimental data from publication doi:10.1101/2021.10.01.462762 (bioRxiv, 2021).

B1: PdeL L168R, tetramerization-deficient variant (enzyme, E. coli)
chain: NSCDFRVFLQEFGTTVHLSLPGSVSEKERLLLKLLMQGMSVTEISQYRNRSAKTISHQKKQLFEKLGIQSDITFWRDIFFQYNPEIISATGSNSHRYINDNHYHHIVTPEAISLALENHEFKPWIQPVFCAQTGVLTGCEVLVRWEHPQTGIIPPDQFIPLAESSGRIVIMTRQLMKQTADILMPVKHLLPDNFHIGINVSAGCFLAAGFEKECLNLVNKLGNDKIKLVLELTERNPIPVTPEARAIFDSLHQHNITFALDDFGTGYATYRYLQAFPVDFIKIDKSFVQMASVDEISGHIVDNIVELARKPGLSIVAEGVETQEQADLMIGKGVHFLQGYLYSPPVPGNKFISEWVMKAGG
B2: PdeL, full-length c-di-GMP phosphodiesterase and transcription factor of E. coli (enzyme, UniProt P21514 1-362, looked up)
chain: MNSCDFRVFLQEFGTTVHLSLPGSVSEKERLLLKLLMQGMSVTEISQYRNRSAKTISHQKKQLFEKLGIQSDITFWRDIFFQYNPEIISATGSNSHRYINDNHYHHIVTPEAISLALENHEFKPWIQPVFCAQTGVLTGCEVLVRWEHPQTGIIPPDQFIPLAESSGLIVIMTRQLMKQTADILMPVKHLLPDNFHIGINVSAGCFLAAGFEKECLNLVNKLGNDKIKLVLELTERNPIPVTPEARAIFDSLHQHNITFALDDFGTGYATYRYLQAFPVDFIKIDKSFVQMASVDEISGHIVDNIVELARKPGLSIVAEGVETQEQADLMIGKGVHFLQGYLYSPPVPGNKFISEWVMKAGG
B3: CB CDB oligo (4695/4696) (dsDNA)
DNA 1: TGCTGAATGGATTCAGTCTTAATGAGTGGG
DNA 2: CCCACTCATTAAGACTGAATCCATTCAGCA

Columns and labels:
SEC-MALS = target: the molecule itself; assay: SEC-MALS
MST = target: the molecule itself; assay: MST
mass photometry = target: the molecule itself; assay: mass photometry
Cra = Cra (Escherichia coli, UniProt P0ACP1 1-334); assay: EMSA
Chain of Cra (P0ACP1 whole entry): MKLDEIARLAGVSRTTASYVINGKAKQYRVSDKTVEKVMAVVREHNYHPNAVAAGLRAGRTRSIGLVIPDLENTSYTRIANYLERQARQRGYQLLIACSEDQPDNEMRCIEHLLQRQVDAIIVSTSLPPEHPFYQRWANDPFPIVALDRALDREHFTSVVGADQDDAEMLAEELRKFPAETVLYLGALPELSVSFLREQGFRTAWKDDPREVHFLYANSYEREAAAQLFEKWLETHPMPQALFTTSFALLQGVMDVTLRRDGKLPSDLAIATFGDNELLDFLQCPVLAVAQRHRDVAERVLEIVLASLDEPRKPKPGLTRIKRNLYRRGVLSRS

PdeL;Cra = PdeL;Cra (Escherichia coli;Escherichia coli, UniProt P21514;P0ACP1 1-362;1-334, |); assay: EMSA
Chain of PdeL;Cra (P0ACP1 whole entry, chain 2 of 2, one chain of several): as the sequence (P0ACP1 whole entry) above

Row | Binder | stoichiometry N (SEC-MALS) | Kd (MST) | stoichiometry N (mass photometry) | Kd (Cra) | Kd (PdeL;Cra)
1 | B1 | 2 |  |  |  | 
2 | B2 | 4 | 9000 nM | 2 |  | 
3 | B3 |  |  |  | 49 nM | 76 nM
